Results reported in paper PMC7442819, “Taf14 recognizes a common motif in transcriptional machineries and facilitates their clustering by phase separation” (Nature Communications, 2020).

B1: Sth1^WT-TAP [Saccharomyces cerevisiae] / Taf14-HA [Saccharomyces cerevisiae] (parent complex)
chain 1: MLQEQSELMSTVMNNTPTTVAALAAVAAASETNGKLGSEEQPEITIPKPRSSAQLEQLLYRYRAIQNHPKENKLEIKAIEDTFRNISRDQDIYETKLDTLRKSIDKGFQYDEDLLNKHLVALQLLEKDTDVPDYFLDLPDTKNDNTTAIEVDYSEKKPIKISADFNAKAKSLGLESKFSNATKTALGDPDTEIRISARISNRINELERLPANLGTYSLDDCLEFITKDDLSSRMDTFKIKALVELKSLKLLTKQKSIRQKLINNVASQAHHNIPYLRDSPFTAAAQRSVQIRSKVIVPQTVRLAEELERQQLLEKRKKERNLHLQKINSIIDFIKERQSEQWSRQERCFQFGRLGASLHNQMEKDEQKRIERTAKQRLAALKSNDEEAYLKLLDQTKDTRITQLLRQTNSFLDSLSEAVRAQQNEAKILHGEEVQPITDEEREKTDYYEVAHRIKEKIDKQPSILVGGTLKEYQLRGLEWMVSLYNNHLNGILADEMGLGKTIQSISLITYLYEVKKDIGPFLVIVPLSTITNWTLEFEKWAPSLNTIIYKGTPNQRHSLQHQIRVGNFDVLLTTYEYIIKDKSLLSKHDWAHMIIDEGHRMKNAQSKLSFTISHYYRTRNRLILTGTPLQNNLPELWALLNFVLPKIFNSAKTFEDWFNTPFANTGTQEKLELTEEETLLIIRRLHKVLRPFLLRRLKKEVEKDLPDKVEKVIKCKLSGLQQQLYQQMLKHNALFVGAGTEGATKGGIKGLNNKIMQLRKICNHPFVFDEVEGVVNPSRGNSDLLFRVAGKFELLDRVLPKFKASGHRVLMFFQMTQVMDIMEDFLRMKDLKYMRLDGSTKTEERTEMLNAFNAPDSDYFCFLLSTRAGGLGLNLQTADTVIIFDTDWNPHQDLQAQDRAHRIGQKNEVRILRLITTDSVEEVILERAMQKLDIDGKVIQAGKFDNKSTAEEQEAFLRRLIESETNRDDDDKAELDDDELNDTLARSADEKILFDKIDKERMNQERADAKAQGLRVPPPRLIQLDELPKVFREDIEEHFKKEDSEPLGRIRQKKRVYYDDGLTEEQFLEAVEDDNMSLEDAIKKRREARERRRLRQNGTKENEIETLENTPEASETSLIENNSFTAAVDEETNADKETTASRSKRRSSRKKRTISIVTAEDKENTQEESTSQENGGAKVEEEVKSSSVEIINGSESKKKKPKLTVKIKLNKTTVLENNDGKRAEEKPESKSPAKKTAAKKTKTKSKSLGIFPTVEKLVEEMREQLDEVDSHPRTSIFEKLPSKRDYPDYFKVIEKPMAIDIILKNCKNGTYKTLEEVRQALQTMFENARFYNEEGSWVYVDADKLNEFTDEWFKEHSS
chain 2: MVATVKRTIRIKTQQHILPEVPPVENFPVRQWSIEIVLLDDEGKEIPATIFDKVIYHLHPTFANPNRTFTDPPFRIEEQGWGGFPLDISVFLLEKAGERKIPHDLNFLQESYEVEHVIQIPLNKPLLTEELAKSGSTEETTANTGTIGKRRTTTNTTAEPKAKRAKTGSASTVKGSVDLEKLAFGLTKLNEDDLVGVVQMVTDNKTPEMNVTNNVEEGEFIIDLYSLPEGLLKSLWDYVKKNTE
B2: Snf5_(771–800) [Saccharomyces cerevisiae] / Taf14ET (Taf14_(174–244)) [Saccharomyces cerevisiae] (parent complex)
chain 1: SPPCYIIDHIPGHSLLLSIKLPGKVNTKEE
chain 2: KGSVDLEKLAFGLTKLNEDDLVGVVQMVTDNKTPEMNVTNNVEEGEFIIDLYSLPEGLLKSLWDYVKKNTE
B3: Ino80_(368–390) [Saccharomyces cerevisiae] / Taf14ET (Taf14_(174–244)) [Saccharomyces cerevisiae] (parent complex)
chain 1: DSKLNIKITLKQYHVKRLKKLIN
chain 2: B2 chain 2
B4: Sth1EBM (Sth1_(1183–1240)) [Saccharomyces cerevisiae] / Taf14ET (Taf14_(174–244)) [Saccharomyces cerevisiae] (parent complex)
chain 1: EVKSSSVEIINGSESKKKKPKLTVKIKLNKTTVLENNDGKRAEEKPESKSPAKKTAAK
chain 2: B2 chain 2

Variants of: B1
Assay: Co-immunoprecipitation; IP: HA; IB: anti-TAP; parent: 1

**Q.** For chain 1 L1204A, chain 1 V1206A, chain 1 I1208A, chain 1 L1210A, which ratio to parent is on record?
**A.** 0.38

Variants of: B2
Assay: ITC; parent: 2.48e+03 nM

**Q.** Which Kd does the source give for chain 1 SPPCYIIDHIPGHSLLLSAKLPGKVNTKEE [chain 1 I19A] here?
**A.** 189 µM

**Q.** chain 1 SPPCYIIDHIPGHSLLASIKLPGKVNTKEE [chain 1 L17A] was tested. Which Kd did it give?
**A.** 41.5 µM

Variants of: B3
Assay: ITC; parent: 250 nM

**Q.** For chain 1 DSKLNIKITAKQYHVKRLKKLIN [chain 1 L10A], which Kd is on record?
**A.** 3.87 µM

**Q.** chain 1 DSKLNAKITLKQYHVKRLKKLIN [chain 1 I6A] was tested. Which Kd did it give?
**A.** 3.86 µM

Variants of: B4
Assay: ITC; parent: 50 nM

**Q.** How did the Kd turn out when chain 1 EVKSSSVEIINGSESKKKKPKLTVKIELNKTTVLENNDGKRAEEKPESKSPAKKTAAK [chain 1 K27E] was run?
**A.** 3940 nM

**Q.** How did the Kd turn out when chain 1 EVKSSSVEIINGSESKKKKPKLTAKIKLNKTTVLENNDGKRAEEKPESKSPAKKTAAK [chain 1 V24A] was run?
**A.** 2040 nM

**Q.** Which Kd does the source give for chain 1 EVKSSSVEIINGSESKKKKPKLTVEIKLNKTTVLENNDGKRAEEKPESKSPAKKTAAK [chain 1 K25E] here?
**A.** 7690 nM

**Q.** With chain 1 EVKSSSVEIINGSESKKKKPKLTVKAKLNKTTVLENNDGKRAEEKPESKSPAKKTAAK [chain 1 I26A] as the variant, how does the Kd read?
**A.** 13400 nM

**Q.** For chain 1 EVKSSSVEIINGSESKKKKPKATVKIKLNKTTVLENNDGKRAEEKPESKSPAKKTAAK [chain 1 L22A], which Kd is on record?
**A.** 2060 nM

**Q.** How did the Kd turn out when chain 1 EVKSSSVEIINGSESKKKKPKLTVKIKANKTTVLENNDGKRAEEKPESKSPAKKTAAK [chain 1 L28A] was run?
**A.** 1140 nM

Variants of: B4
Assay: ITC; parent: 50 nM
Remark: another data set of the same source

**Q.** chain 2 KGSVDLEKLAFGLTKLNEDDLVGVVQMVTDNKTPEMNVTNNVEEGERIIDLYSLPEGLLKSLWDYVKKNTE [chain 2 F47R] was tested. Which Kd did it give?
**A.** 3500 nM

**Q.** For chain 2 KGSVDLEKLAFGLTKLNEDDLVGVVQMVTDNKTPEMNVTNNVEEGEAIIDLYSLPEGLLKSLWDYVKKNTE [chain 2 F47A], which Kd is on record?
**A.** 680 nM
